Experimental findings from paper PMC7108862, “GPC1 specific CAR-T cells eradicate established solid tumor without adverse effects and synergize with anti-PD-1 Ab” (eLife, 2020) are described below.

The target in experiment [1] is T1, recombinant hGPC1 protein (Homo sapiens, UniProt P35052).
T1 construct: glypican-1 (GPC1), human, recombinant protein from Biolegend; also called Human GPC1; human glypican-1; source: bought: Biolegend
The experiment is described as follows: SPR; scFv-Fc fusion protein (1 μg/ml) captured by polyclonal rabbit anti-mouse IgG immobilised on CM5 chip; recombinant hGPC1 (6.25–400 nM) or mGPC1 (25–400 nM) injected; 25°C, HBS-EP+ buffer, Biacore T200. The note with it: both partners purified. A general note: Surface plasmon resonance follows binding to a sensor surface in real time, without labels.

For experiment [2], the target named is T2, recombinant mGPC1 protein (Mus musculus, UniProt Q9QZF2).
T2 construct: glypican-1 (GPC1), mouse, recombinant protein from Biolegend; also called Mouse GPC1; mouse glypican-1; source: bought: Biolegend
T2 sequence (Q9QZF2 24-529): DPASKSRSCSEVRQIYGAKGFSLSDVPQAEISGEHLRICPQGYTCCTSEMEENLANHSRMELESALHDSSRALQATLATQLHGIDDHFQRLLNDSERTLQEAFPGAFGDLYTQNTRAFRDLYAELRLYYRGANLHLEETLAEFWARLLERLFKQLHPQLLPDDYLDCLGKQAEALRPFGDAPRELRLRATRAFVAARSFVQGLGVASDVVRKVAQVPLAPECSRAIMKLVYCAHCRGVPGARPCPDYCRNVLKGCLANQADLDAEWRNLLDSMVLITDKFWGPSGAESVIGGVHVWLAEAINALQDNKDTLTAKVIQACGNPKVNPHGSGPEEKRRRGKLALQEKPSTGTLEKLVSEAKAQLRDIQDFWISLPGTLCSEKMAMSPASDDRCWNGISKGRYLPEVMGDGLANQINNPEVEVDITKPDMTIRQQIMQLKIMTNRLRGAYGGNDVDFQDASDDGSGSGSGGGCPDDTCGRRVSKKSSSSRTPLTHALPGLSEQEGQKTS
The description is as above. The settings on record: both partners purified.

T1 sequence (P35052 24-530): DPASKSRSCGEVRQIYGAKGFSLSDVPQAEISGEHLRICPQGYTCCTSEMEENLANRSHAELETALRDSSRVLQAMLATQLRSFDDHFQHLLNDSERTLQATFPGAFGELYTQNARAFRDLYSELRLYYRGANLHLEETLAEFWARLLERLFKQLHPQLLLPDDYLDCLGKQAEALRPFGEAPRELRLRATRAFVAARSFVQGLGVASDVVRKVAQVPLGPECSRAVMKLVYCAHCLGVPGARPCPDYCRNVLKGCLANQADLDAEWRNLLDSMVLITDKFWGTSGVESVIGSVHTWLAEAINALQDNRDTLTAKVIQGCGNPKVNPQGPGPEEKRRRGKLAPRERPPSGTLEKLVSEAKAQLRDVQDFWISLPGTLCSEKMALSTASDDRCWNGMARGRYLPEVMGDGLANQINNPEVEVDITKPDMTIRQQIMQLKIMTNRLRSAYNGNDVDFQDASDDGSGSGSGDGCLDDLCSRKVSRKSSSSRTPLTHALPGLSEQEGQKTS

B1: LH form of anti GPC1 scFv-mIgG2a Fc fusion protein (scFv, V domains shown)
VH: AVTLDESGGGLQTPGRALSLVCKASGFTFSRYAMYWVRQAPGKGLEFVAGIGNTGRYTGYGSAVKGRATISRDSGQSTVRLQLNNLRAEDTGNYYCAKSVSPYCCDAADIDAWGHGTEVIVSS
VL: ASTQPSSVSANPGETVKITCSGGSSGYAYGWYQQKSPGSAPVTLLYSNNNRPSDIPSRFSGSKSGSTATLTITGVQAEDEAVYFCGSVDSSSYAGIFGAGTTLTVL
notes: VL of anti-GPC1 mAb (clone: 1–12); purple) and its source data 1; linker of the scFv; orange); VH of anti-GPC1 mAb (clone: 1–12); green) and its source data 1; scFv cloned into pCAG-Neo mIgG2a-Fc plasmid (FUJIFILM Wako); Variable regions come from a chicken-based antibody; In the functional rows the same scFv stood as a CAR (human CD28 and CD3ζ domains) on human T cells; also called LH form of …
A word on the Kd: it is the concentration at which binding is half-saturated. For the molecule B1, the Kd in experiment [1] turned out to be 9.06 nM; in experiment [2], 51.8 nM.

B2: HL form of anti GPC1 scFv-mIgG2a Fc fusion protein (scFv, V domains shown)
VH: AVTLDESGGGLQTPGRALSLVCKASGFTFSRYAMYWVRQAPGKGLEFVAGIGNTGRYTGYGSAVKGRATISRDSGQSTVRLQLNNLRAEDTGNYYCAKSVSPYCCDAADIDAWGHGTEVIVSS
VL: ASTQPSSVSANPGETVKITCSGGSSGYAYGWYQQKSPGSAPVTLLYSNNNRPSDIPSRFSGSKSGSTATLTITGVQAEDEAVYFCGSVDSSSYAGIFGAGTTLTVL
notes: VH of anti-GPC1 mAb (clone: 1–12), as the VH of m1; linker of the scFv; orange); VL of anti-GPC1 mAb (clone: 1–12), as the VL of m1; scFv cloned into pCAG-Neo mIgG2a-Fc plasmid (FUJIFILM Wako); Variable regions come from a chicken-based antibody; In the functional rows the same scFv stood as a CAR on human T cells (human CD28/CD3ζ) or murine T cells (mouse CD28/CD3ζ); also called HL form of scFv; …
Consider B2, for which the values for the Kd in experiment [1] and in experiment [2] were 12.2 nM and 109 nM, respectively.
